Earlier results on one substance are cited in publication PMC5477003.

The Kd is the equilibrium constant for the complex coming apart.

This data set concerns the target integrin αIIbβ3 (Homo sapiens) (UniProt P08514).

As to CD40L (from UniProt P29965), the Kd is 30 nM.
